Experimental data published in patent US20060058504A1, “Peptides capable of inducing attraction to the axonal growth and their use for treating neurodegenerative diseases” (Centre National de la Recherche Scientific (CNRS), priority 2002, published 2006).
Where a chain is given by its changes, count along the chain named. Numbers in names are those of the source. Entries after “also recorded” stand apart in the source; their conditions may differ. Like-named read-outs stand apart in the source and are kept apart here.

B1: G121S mutant L1Fc chimera (Fc fusion, UniProt P32004 20-1120, looked up)
chain: IQIPEEYEGHHVMEPPVITEQSPRRLVVFPTDDISLKCEASGKPEVQFRWTRDGVHFKPKEELGVTVYQSPHSGSFTITGNNSNFAQRFQGIYRCFASNKLSTAMSHEIRLMAEGAPKWPKETVKPVEVEEGESVVLPCNPPPSAEPLRIYWMNSKILHIKQDERVTMGQNGNLYFANVLTSDNHSDYICHAHFPGTRTIIQKEPIDLRVKATNSMIDRKPRLLFPTNSSSHLVALQGQPLVLECIAEGFPTPTIKWLRPSGPMPADRVTYQNHNKTLQLLKVGEEDDGEYRCLAENSLGSARHAYYVTVEAAPYWLHKPQSHLYGPGETARLDCQVQGRPQPEVTWRINGIPVEELAKDQKYRIQRGALILSNVQPSDTMVTQCEARNRHGLLLANAYIYVVQLPAKILTADNQTYMAVQGSTAYLLCKAFGAPVPSVQWLDEDGTTVLQDERFFPYANGTLGIRDLQANDTGRYFCLAANDQNNVTIMANLKVKDATQITQGPRSTIEKKGSRVTFTCQASFDPSLQPSITWRGDGRDLQELGDSDKYFIEDGRLVIHSLDYSDQGNYSCVASTELDVVESRAQLLVVGSPGPVPRLVLSDLHLLTQSQVRVSWSPAEDHNAPIEKYDIEFEDKEMAPEKWYSLGKVPGNQTSTTLKLSPYVHYTFRVTAINKYGPGEPSPVSETVVTPEAAPEKNPVDVKGEGNETTNMVITWKPLRWMDWNAPQVQYRVQWRPQGTRGPWQEQIVSDPFLVVSNTSTFVPYEIKVQAVNSQGKGPEPQVTIGYSGEDYPQAIPELEGIEILNSSAVLVKWRPVDLAQVKGHLRGYNVTYWREGSQRKHSKRHIHKDHVVVPANTTSVILSGLRPYSSYHLEVQAFNGRGSGPASEFTFSTPEGVPGHPEALHLECQSNTSLLLRWQPPLSHNGVLTGYVLSYHPLDEGGKGQLSFNLRDPELRTHNLTDLSPHLRYRFQLQATTKEGPGEAIVREGGTMALSGISDFGNISATAGENYSVVSWVPKEGQCNFRFHILFKALGEEKGGASLSPQYVSYNQSSYTQWDLQPDTDYEIHLFKERMFRHQMAVKTNGTGRVRLPPAGFATE
notes: also called G121S-L1Fc; not shown: immunoglobulin Fc, human
B2: G121S: L1Fc chimera with missense mutation G121S in Ig domain 1 (protein)
chain: B1 chain
modifications: left off: a dimerising Fc or GST
B3: L1Fc: soluble wild-type L1Fc chimeric protein (protein)
chain: B1 chain with S102G
modifications: left off: a dimerising Fc or GST
notes: soluble wild-type L1Fc chimeric protein
B4: L120V: L1Fc chimera with missense mutation L120V in Ig domain 1 (protein)
chain: B1 chain with L101V, S102G
modifications: left off: a dimerising Fc or GST

Columns and labels:
[1] = molecular target: the molecule itself; assay: two-color FACS bead aggregation, mutant to mutant (FIG. 2B)
Method: Excess unbound protein was removed by washing with PBS/5% FCS. […] Samples were diluted 1:5000 into ice cold PBS and the proportion of 2 colour aggregates was assessed using a fluorescence activated cell sorter (Becton Dickenson FACSort). […] Every mutant protein was assayed at least 3 separate times and standardised to a wild-type control conducted in parallel.

[2] = molecular target: T1, full-length wild-type human L1 expressed in COS7 cells (human, UniProt P32004 20-1257); assay: immunofluorescence of L1Fc on COS cells expressing wild-type L1
T1 construct: whole, on cells; also called wild-type L1; transmembrane L1
Method: Briefly, COS-7 cells were transiently transfected with 10 μg DNA per 150 mm culture dish, the soluble Fc chimeric protein was allowed to accumulate in the media for 6 days and was recovered and purified by protein A-Sepharose affinity chromatography. In the binding experiments, L1Fcs were cross-linked to anti-human Fc antibodies (50 μg/ml, Jackson Immunoresearch) for 1 hr at 37° C. […] Following incubation, the cells were fixed with 4% PFA, and processed for double-immunofluorescence detection. NP-1 was detected using a mouse anti-c myc antibody (clone 9E10, Sigma) and L1 using a rat monoclonal anti-L1 antibody. […] After secondary antibody incubation, the cells were washed with PBS and mounted in Mowiol (Calbiochem).

[3] = tested on: cortical axons repelled by Sema3A secreted from the ventral spinal cord; assay: Co-culture of cortical slices and ventral spinal cord explants (axon guidance response to Sema3A); format: cell-based, mice; conditions: for switching of Sema3A repulsion to attraction by L1Fc chimera: chimera 3 μg/ml in culture medium; for guidance index: qualitative index from −2 (repulsion) to +2 (attraction), L1Fc chimeras 3 μg/ml, ODQ 10^−5M
Method: Blocks of cortex were dissected from P0 (postnatal day 0) to P2 mice and cut into 250 μm thick slices with a McIlwain tissue chopper. The ventral part of the cervical spinal cord was dissected and cut into 250 μm thick slices. Co-culture of cortical slices and ventral spinal cord explants were performed in a three-dimensional plasma clot, as described previously (Castellani et al., 2000). Cortical slices were oriented in the plasma clot as indicated in FIG. 1B to give to axons equivalent chances to be deflected away or towards the spinal cord explant. Purified wild-type or mutant L1Fc chimeras were added to the culture medium (3 μg/ml). Inhibitors of the guanylyl cyclase (ODQ, 10^−5 M, Sigma) and NOS (7NI, […], Sigma) were added to the culture medium, either alone or with wild-type L1Fc (3 μg/ml). After one or two days in vitro (DIV), the cultures were fixed with 4% paraformaldehyde (PFA) and analyzed by phase contrast microscopy (Axiovert 35-M, Zeiss). A qualitative guidance index was attributed to the co-cultures, to assess the degree of repulsive (negative values) or attractive (positive values) effects (Castellani et al., 2000). The index ranged from −2 (when most fibers grew away from the spinal cord explant) to +2 (when most fibers grew towards the explant), with intermediate situations (index of −1 and +1 for moderate guidance effects). An index of zero was attributed to the cultures showing no preferential growth. Quantitative analysis of axon length and number of axons growing from cortical slices was performed as described previously (Castellani et al., 2000). A proximal and a distal region, each of them covering a 600 μm-piece of cortical tissue were determined for each culture. All fibers extending from these two regions were counted and the length of the three longest fibers was measured, using computer analysis software (Visiolab 2000, Biocom). Immunofluorescence labeling of axons was performed using the mouse anti-phosphorylated neurofilament antibody SMI31 (Stemberger and Meyer Inc.), and Texas red-conjugated secondary anti-mouse antibody (see result obtained for number of axons and axonal length in the following tables 1 and 2).
It has been previously developed an assay system using explants of ventral spinal cord co-cultured with cortical axons in order to determine the factors involved in axonal repulsion and attraction (Castellani et al., 2000). Using this system we have shown that Sema3A secreted from the ventral spinal cord repels cortical axons. In the presence of soluble wild-type L1Fc chimeric protein however, repulsion is switched to attraction (Castellani et al., […]). In the present study, we aimed to identify the L1 interactions underlying the switching process. As Ig domains have been implicated in binding of Ig CAMs to many of their ligands (Brümmendorf and Rathjen, 1996) we hypothesized that they would also be required for L1 Fc-mediated switching. […] L1 Fc chimeras containing pathological missense mutations affecting specific Ig domains (De Angelis et al., 1999 and FIGS. 1A, 1B) were assessed for their ability to reverse Sema3A repulsion to attraction.

full length human L1 = molecular target: T2, full length human L1 (Homo sapiens, UniProt P32004); assay: Binding of L1Fc chimeras to COS cells expressing wild-type L1 (immunofluorescence)
T2 construct: transiently transfected with expression vectors encoding full length human L1; expressed in transfected cells; host or cells: COS7
T2 sequence (P32004 20-1257): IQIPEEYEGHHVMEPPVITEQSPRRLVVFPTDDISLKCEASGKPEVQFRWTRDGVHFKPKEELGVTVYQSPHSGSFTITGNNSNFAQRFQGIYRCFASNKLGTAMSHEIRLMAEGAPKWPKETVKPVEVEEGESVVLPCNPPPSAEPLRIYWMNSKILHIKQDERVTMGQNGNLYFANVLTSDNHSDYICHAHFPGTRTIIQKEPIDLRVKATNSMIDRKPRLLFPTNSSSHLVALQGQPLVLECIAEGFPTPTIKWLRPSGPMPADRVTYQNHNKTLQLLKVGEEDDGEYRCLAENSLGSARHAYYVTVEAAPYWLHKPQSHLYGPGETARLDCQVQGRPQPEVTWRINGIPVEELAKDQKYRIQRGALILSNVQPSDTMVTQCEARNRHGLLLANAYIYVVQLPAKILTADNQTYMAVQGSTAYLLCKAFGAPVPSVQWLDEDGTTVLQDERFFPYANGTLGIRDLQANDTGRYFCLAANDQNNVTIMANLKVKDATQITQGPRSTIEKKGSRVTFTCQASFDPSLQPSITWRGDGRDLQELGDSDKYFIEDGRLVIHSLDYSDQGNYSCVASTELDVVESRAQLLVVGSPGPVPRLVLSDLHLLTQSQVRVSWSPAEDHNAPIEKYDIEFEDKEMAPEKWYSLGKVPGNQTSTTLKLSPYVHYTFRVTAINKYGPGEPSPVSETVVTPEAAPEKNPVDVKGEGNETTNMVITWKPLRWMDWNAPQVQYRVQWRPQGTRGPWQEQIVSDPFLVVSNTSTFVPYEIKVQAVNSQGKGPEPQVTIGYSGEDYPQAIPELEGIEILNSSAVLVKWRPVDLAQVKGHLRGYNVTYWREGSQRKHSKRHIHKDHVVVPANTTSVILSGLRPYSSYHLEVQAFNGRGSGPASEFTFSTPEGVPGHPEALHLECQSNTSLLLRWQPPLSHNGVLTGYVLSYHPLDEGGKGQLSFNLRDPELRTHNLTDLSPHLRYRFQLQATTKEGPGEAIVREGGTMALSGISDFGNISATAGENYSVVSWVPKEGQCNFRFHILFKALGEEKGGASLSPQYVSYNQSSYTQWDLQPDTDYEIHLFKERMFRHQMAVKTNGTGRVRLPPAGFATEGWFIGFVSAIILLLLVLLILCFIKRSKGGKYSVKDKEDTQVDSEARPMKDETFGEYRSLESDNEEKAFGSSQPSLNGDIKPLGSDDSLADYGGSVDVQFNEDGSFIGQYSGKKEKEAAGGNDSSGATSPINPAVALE
Method: (§1) The mutant L1Fc chimeras were produced and purified as described previously (De Angelis et al., 1999). Briefly, COS-7 cells were transiently transfected with 10 μg DNA per 150 mm culture dish, the soluble Fc chimeric protein was allowed to accumulate in the media for 6 days and was recovered and purified by protein A-Sepharose affinity chromatography. In the binding experiments, L1Fcs were cross-linked to anti-human Fc antibodies (50 μg/ml, Jackson Immunoresearch) for 1 hr at 37° C. Binding detection to NP-1 requested concentrations of L1Fcs 10 folds higher than L1. Antibody conjugated L1-Fc protein was then incubated with monolayers of COS7 cells transiently transfected with expression vectors encoding full length human L1 or myc-tagged NP-1 where the cytoplasmic domain is deleted (gift of J. Raper, 2000 and Renzi et al., 1999). Following incubation, the cells were fixed with 4% PFA, and processed for double-immunofluorescence detection. NP-1 was detected using a mouse anti-c myc antibody (clone 9E10, Sigma) and L1 using a rat monoclonal anti-L1 antibody. Secondary antibody anti-c-myc (Texas-red conjugated anti-mouse antibodies) was used to detect NP-1, anti-L1 (Texas red conjugated anti-rat antibodies) to detect L1, and anti-Fc (FITC conjugated anti-rabbit antibodies) to detect bound L1Fc chimeras. After secondary antibody incubation, the cells were washed with PBS and mounted in Mowiol (Calbiochem).
Thus, Ig CAMs F3 and TAG-1 (the rodent homologue of axonin-1) ate unlikely to be axonal receptors for L1Fc in the reversion process. […] In the present study however, mutated L1Fc proteins were required to interact with wild-type L1 expressed on growth cones. To formally exclude a role for homophilic binding of L1 in the initiation of the reversion process, it was therefore necessary to examine whether homophilic binding of the mutated L1Fc chimeras to wild-type L1 was also disrupted. Mutated L1Fcs were therefore incubated with COS7 cells transfected with full-length wild-type L1 cDNA and binding was assessed by immunofluorescence. In parallel, homophilic binding of mutant/mutant and mutant/wild-type L1Fcs was compared in a two-color FACS aggregation assay, allowing a quantitative assessment to be made (see Methods). […] Similarly, in the two color FACS assay homophilic binding was restored to 74.4% and 90.5% of wild-type levels for A426D and H210Q respectively (FIG. 2B). […] This mutation however still promoted the L1 Fc induced switching of Sema3A repulsion to attraction in the co-culture assay. Thus, the ability of L1Fc to switch Sema3A repulsion is not dependent on homophilic binding. Consequently, the trans interaction of L1Fc with L1 in the receptor complex is not required for the change in growth cone responsiveness to Sema3A.

wild-type L1 = assay: Two-color FACS aggregation assay (homophilic binding); conditions: mixed aggregates at the 30-minute time-point; mutant/wild-type
Sequence of wild-type L1 (P32004 with tags, fused parts or gaps limits assumed): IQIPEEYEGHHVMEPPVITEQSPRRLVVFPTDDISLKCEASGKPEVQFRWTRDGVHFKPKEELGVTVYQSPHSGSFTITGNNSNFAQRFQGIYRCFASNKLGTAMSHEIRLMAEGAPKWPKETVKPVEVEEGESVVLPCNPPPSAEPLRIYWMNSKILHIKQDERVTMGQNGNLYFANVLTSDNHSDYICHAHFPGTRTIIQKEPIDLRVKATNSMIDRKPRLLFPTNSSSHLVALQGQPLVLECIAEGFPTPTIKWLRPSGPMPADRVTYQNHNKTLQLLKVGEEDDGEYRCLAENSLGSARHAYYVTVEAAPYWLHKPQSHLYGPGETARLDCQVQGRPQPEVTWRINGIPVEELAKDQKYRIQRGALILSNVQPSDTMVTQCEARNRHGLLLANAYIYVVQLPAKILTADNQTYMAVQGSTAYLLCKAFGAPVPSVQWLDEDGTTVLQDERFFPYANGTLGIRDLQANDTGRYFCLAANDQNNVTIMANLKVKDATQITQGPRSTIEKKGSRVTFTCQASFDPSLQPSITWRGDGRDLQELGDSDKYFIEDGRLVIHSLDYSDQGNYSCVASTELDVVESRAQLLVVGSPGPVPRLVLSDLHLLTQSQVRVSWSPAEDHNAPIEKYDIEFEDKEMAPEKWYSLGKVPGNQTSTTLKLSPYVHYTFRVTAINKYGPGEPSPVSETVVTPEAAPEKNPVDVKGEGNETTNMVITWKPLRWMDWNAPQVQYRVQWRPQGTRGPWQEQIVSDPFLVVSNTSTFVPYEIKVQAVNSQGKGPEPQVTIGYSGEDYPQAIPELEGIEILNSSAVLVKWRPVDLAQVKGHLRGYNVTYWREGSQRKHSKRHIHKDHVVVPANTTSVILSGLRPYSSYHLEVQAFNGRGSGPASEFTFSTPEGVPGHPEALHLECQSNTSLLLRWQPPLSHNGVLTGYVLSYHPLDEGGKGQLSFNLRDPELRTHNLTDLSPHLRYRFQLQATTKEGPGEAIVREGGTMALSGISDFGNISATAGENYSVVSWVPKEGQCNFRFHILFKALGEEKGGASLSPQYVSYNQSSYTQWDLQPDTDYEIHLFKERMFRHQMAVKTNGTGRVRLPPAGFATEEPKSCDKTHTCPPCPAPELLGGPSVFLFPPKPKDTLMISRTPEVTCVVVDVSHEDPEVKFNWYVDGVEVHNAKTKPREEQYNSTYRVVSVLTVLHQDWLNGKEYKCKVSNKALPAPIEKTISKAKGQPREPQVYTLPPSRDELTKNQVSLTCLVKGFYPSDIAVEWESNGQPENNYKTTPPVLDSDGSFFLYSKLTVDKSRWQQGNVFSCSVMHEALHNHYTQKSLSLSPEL
Method: A two-color aggregation assay was developed, modified from the homophilic binding assay described by De Angelis et al. (1999). For the two-color assay, red and green fluorescent microsphere beads (0.6 um, Duke Scientific Corps.) were coated with anti-human IgG antibody (Fc specific; Sigma, 1-2136). 2.5 μg of wild type (red beads) or mutant (green beads) L1Fc-proteins were conjugated to 10 μl of antibody-coated beads by incubating for 2 hrs at 37° C. Excess unbound protein was removed by washing with PBS/5% FCS. For each mutant, a 1:1 mixture of wild-type L1 and mutant L1 coated beads was prepared, dissaggregated to produce a single bead suspension and allowed to form mixed aggregates at 37° C. with samples removed in duplicate over a 30-minute time course. Samples were diluted 1:5000 into ice cold PBS and the proportion of 2 colour aggregates was assessed using a fluorescence activated cell sorter (Becton Dickenson FACSort). Ten thousand particles were counted per sample and categorised as red only (WT-L1: WT-L1), green only (Mutant L1: Mutant L1) or mixed aggregates. Every mutant protein was assayed at least 3 separate times and standardised to a wild-type control conducted in parallel.

NP-1 = assay: Binding of L1Fc chimeras to NP-1 expressing COS7 cells (immunofluorescence)
Method: as §1
Next, we examined the ability of the mutant L1 Fc chimeras to bind NP-1. COS7 cells were transfected with a vector encoding the extracellular and transmembrane domains of NP-1 fused to a myc tag (ANP-1, Renzi et al., J. Neurosci., 15:7870-7880, 1999), and incubated with the mutant L1Fc chimeras. Binding was detected by immunofluorescence. […] Binding of L120V, G121S and A426D L1Fcs to NP-1 is illustrated in FIG. 3.

L1 = conditions: mutant bound to itself; cited from earlier work
F3, axonin-1 and TAX-1 = conditions: F3, axonin-1 (and TAX-1 where stated); cited from earlier work
Plexin-A1 = Plexin-A1 (Homo sapiens, UniProt Q9UIW2); assay: Binding of L1Fc to Plexin-A1 expressing COS7 cells (immunofluorescence)
Sequence of Plexin-A1 (Q9UIW2 27-1896, species assumed): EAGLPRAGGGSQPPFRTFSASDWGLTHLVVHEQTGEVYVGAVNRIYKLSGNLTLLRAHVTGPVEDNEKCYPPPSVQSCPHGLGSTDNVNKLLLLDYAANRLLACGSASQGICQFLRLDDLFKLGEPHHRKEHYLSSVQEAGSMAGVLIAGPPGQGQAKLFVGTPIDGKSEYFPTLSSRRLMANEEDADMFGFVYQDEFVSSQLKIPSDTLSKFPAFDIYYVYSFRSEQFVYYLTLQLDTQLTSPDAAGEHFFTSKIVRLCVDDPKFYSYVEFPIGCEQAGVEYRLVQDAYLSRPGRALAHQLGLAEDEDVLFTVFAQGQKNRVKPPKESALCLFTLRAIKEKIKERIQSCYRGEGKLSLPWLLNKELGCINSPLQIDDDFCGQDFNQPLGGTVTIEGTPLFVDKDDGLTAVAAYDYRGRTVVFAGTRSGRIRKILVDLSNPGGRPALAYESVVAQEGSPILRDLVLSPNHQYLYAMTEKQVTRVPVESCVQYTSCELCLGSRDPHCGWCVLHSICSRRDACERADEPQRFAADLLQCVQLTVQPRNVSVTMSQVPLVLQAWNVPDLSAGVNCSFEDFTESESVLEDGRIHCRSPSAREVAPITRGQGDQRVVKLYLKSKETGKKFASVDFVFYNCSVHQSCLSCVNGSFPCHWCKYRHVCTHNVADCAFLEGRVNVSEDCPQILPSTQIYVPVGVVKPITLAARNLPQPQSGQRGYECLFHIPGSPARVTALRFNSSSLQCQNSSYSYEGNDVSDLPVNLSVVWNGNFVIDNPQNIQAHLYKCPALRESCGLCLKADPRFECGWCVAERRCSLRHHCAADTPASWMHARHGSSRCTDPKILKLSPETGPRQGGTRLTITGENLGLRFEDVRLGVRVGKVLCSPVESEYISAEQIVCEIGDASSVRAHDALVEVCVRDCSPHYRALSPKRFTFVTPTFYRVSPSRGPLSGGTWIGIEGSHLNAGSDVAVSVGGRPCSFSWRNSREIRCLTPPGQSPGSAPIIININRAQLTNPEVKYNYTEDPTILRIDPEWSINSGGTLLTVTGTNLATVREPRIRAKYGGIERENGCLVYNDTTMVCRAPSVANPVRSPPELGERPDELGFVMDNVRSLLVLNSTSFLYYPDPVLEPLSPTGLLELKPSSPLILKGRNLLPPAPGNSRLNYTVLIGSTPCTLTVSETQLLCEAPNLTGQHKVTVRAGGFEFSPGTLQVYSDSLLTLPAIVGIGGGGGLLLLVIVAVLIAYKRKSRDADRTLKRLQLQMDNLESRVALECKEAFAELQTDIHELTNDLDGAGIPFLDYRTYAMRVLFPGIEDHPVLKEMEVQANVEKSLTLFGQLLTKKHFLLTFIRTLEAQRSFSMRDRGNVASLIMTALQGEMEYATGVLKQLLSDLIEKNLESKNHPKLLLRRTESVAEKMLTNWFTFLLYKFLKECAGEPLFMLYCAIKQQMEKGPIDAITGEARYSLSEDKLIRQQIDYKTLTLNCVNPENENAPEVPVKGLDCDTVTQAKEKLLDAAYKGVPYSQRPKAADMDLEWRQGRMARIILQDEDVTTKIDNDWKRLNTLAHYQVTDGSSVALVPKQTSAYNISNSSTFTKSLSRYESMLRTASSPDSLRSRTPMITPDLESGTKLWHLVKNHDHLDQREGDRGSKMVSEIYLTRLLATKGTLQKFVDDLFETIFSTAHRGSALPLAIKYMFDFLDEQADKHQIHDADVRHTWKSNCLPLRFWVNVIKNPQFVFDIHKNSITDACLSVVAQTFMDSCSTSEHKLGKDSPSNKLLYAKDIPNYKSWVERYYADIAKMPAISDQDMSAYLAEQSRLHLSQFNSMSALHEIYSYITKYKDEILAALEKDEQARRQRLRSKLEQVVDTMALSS

[4] = Ctx/vSC co-culture, growth away from spinal cord explant, L1Fc 3 μg/ml, ODQ 10^−5 M
[5] = Ctx/vSC co-culture, growth towards spinal cord explant, L1Fc 3 μg/ml, ODQ 10^−5 M

Row | Molecule | binding result [1] | binding result [2] | switching of Sema3A repulsion to attraction by L1Fc chimera [3] | binding to wild-type L1 expressed in COS cells (full length human L1) | homophilic binding to wild-type L1, percent of wild-type levels (wild-type L1) | binding to NP-1 expressing cells (NP-1) | effect of mutation on homophilic binding (L1) | effect of mutation on heterophilic binding (F3, axonin-1 and TAX-1) | Axonal length, Away [3, 4] | Number of axons, Away [3, 4] | Axonal length, Towards [3, 5] | Number of axons, Towards [3, 5] | guidance index [3] | binding to wild-type L1 expressed in COS cells (full length human L1; listed as Wild-type L1 Fc) | binding to Plexin-A1 expressing cells (Plexin-A1) | binding to Plexin-A1 expressing cells (Plexin-A1; listed as Wild-type L1 Fc) | binding to NP-1 expressing cells (NP-1; listed as L120V-L1Fc)
1 | B1 | binds | no binding |  |  |  |  |  |  |  |  |  |  |  |  |  |  | 
2 | B2 |  |  | able to reverse Sema3A repulsion to attraction; also recorded: efficiently induce switching of Sema3A repulsion to attraction; also recorded: switched Sema3A from repulsion to attraction to the same extent as wild type L1Fc | did not; also recorded: almost abolished homophilic binding to wild-type L1 | extremely low; also recorded: almost abolished homophilic binding to wild-type L1 | bound to NP-1 expressing cells | reduce homophilic binding | reduce |  |  |  |  |  |  |  |  | 
3 | B3 |  |  | switched repulsion to attraction | clear binding |  |  |  |  | 198.6 +/− 4 | 5.8 +/− 0.7 | 346.8 +/− 5, * | 22.6 +/− 1.6, * | +1.5 | bound to L1 | no binding to Plexin-A1 expressing cells | not Plexin-A 1-expressing cells | 
4 | B4 |  |  | unable to switch the repulsive activity of Sema3A to attraction; also recorded: abrogated the reversal of Sema3A repulsion to attraction; also recorded: failed to reverse Sema3A effect | bound to wild-type L1 | 100% | did not | does not affect | does not affect |  |  |  |  | −1.3 |  |  |  | did not bind NP-1
